According to patent US20110117113A1, “IMMUNOGLOBULIN SINGLE VARIABLE DOMAIN DIRECTED AGAINST HUMAN CXCR4 AND OTHER CELL ASSOCIATED PROTEINS AND METHODS TO GENERATE THEM” (priority 2009, published 2011):

What was measured:
CXCR4 (N119A) [1] = biological target: T1, CXCR4 (N119A) (Homo sapiens, UniProt P61073, N119A); assay: Basal inositol phosphate accumulation in HEK293T cells transiently expressing CXCR4 (N119A); assay type: cell-based; conditions: for functional profile on CXCR4 (N119A) (in words): ligand-induced alteration of basal inositol phosphate accumulation; for reduction of the constitutively increased basal signalling of CXCR4 (N119A): basal inositol phosphate accumulation, HEK293T cells transiently expressing CXCR4 (N119A)
T1 construct: expressed in transfected cells; host or cells: HEK293T, transient; membranes in A4, whole cells in A5
Description: The functional profile of monovalent Nanobodies 238D2 and 238D4 as well as their bivalent fusion products L3 and L8 on CXCR4 (N119A) were investigated by measurement of the ligand-induced alteration of the basal inositol phosphate accumulation. HEK293T cells transiently expressing CXCR4 (N119A) show a 3-8 times higher basal rate of inositol phosphate accumulation compared to wild type CXCR4 or mock (which are virtually at the same level). […] The nanobody-induced reduction of basal inositol phosphate accumulation was antagonized by the selective neutral CXCR4 antagonist plerixafor confirming that the observed […] effects are mediated via CXCR4 (N119A).

CXCR4 [2] = biological target: T2, CXCR4 (Homo sapiens, UniProt P61073); assay: Competition binding, displacement of [^125I]-238D2 on membranes from HEK293T cells transiently expressing CXCR4
T2 construct: expressed in transfected cells; host or cells: HEK293T, transient; membrane fraction
Experimental: (§1) Iodine incorporation and specific activity were controlled via precipitation of the protein with trichloroacetic acid.
(§2) Competition binding assay—Periplasmic fractions were screened in a competition binding assay using membranes from HEK293T cells transiently expressing CXCR4. […] Membranes were then harvested over polyethylenimine (0.5%)-treated Whatman GF/C filter plates and washed three times with ice cold binding buffer containing 500 mM NaCl. Plates were counted by liquid scintillation.
(§3) Characterization of Nanobody binding to CXCR4—Following purification, receptor binding to characteristics for 238D2 and 238D4 were investigated on cell membranes from HEK293T cells transiently expressing CXCR4.
(§4) Data analysis and presentation—Data are presented as mean±S.E.M. from n independent experiments. Concentration response curves (E/[A] curves) were fitted to the Hill equation using an iterative, least-squares method (GraphPad Prism 4.0, GraphPad Software, San Diego, Calif.) to provide maximal inhibitory effects (Imax), half maximal effective (EC50) or inhibitory concentrations (IC50). Competition binding affinities and functional antagonist affinities (Ki) were calculated using the Cheng and Prusoff equation Ki=IC50/(1+[agonist]/EC50) (Cheng & Prusoff, 1973).

CXCR4 [3] = biological target: T2, CXCR4; assay: Competition binding, displacement of [^125I]-238D4 on membranes from HEK293T cells transiently expressing CXCR4
Experimental: as §1, §2, §3, §4

CXCR4 (N119A) [4] = biological target: T1, CXCR4 (N119A); assay: Competition binding with [125I]-CXCL12 on constitutively active CXCR4 mutant N119A; conditions: competition with [125I]-CXCL12 (40 pM); for binding to CXCR4 (N119A) (in words): highest nanobody test concentration 2 μM
Experimental: Competition binding assay—Periplasmic fractions were screened in a competition binding assay using membranes from HEK293T cells transiently expressing CXCR4. In short, periplasmic extracts (1:10) or ligands were pre-incubated with membranes in binding buffer (50 mM HEPES (pH 7.4), 1 mM CaCl2, 5 mM MgCl2, 100 mM NaCl, 0.5% bovine serum albumin) supplemented with 0.5% BSA for 1 h at 22° C. before the addition of [^125I]-CXCL12 (40 pM) or [^125I]-238D2 (3 nM) or [^125I]-238D4 (3 nM) for additional 2 h at 22° C. […] Membranes were then harvested over polyethylenimine (0.5%)-treated Whatman GF/C filter plates and washed three times with ice cold binding buffer containing 500 mM NaCl. Plates were counted by liquid scintillation.
CXCR4—specific Nanobodies behave as neutral antagonists or inverse agonists on constitutively active mutants of CXCR4—The CXCR4—specific monovalent Nanobodies 238D2 and 238D4 as well as their bivalent fusion products L3 and L8 were investigated on the constitutively active CXCR4 mutant N119A (equivalent to N3.35A in the Ballestros-Weinstein numbering of class A GPCRs). […] Despite of the large number of CAMs for other class A GPCRs and further efforts to generate additional CAMs for CXCR4 (Berchiche et al., 2007), the N119 mutants of CXCR4 remain the only known CAMs for this receptor. […] Methods: Preparation of membranes and competition binding experiments with [125I]-CXCL12 (40 pM) were performed as described before for wild type CXCR4 (vide supra).

CXCR4 [5] = biological target: T2, CXCR4; assay: Competition binding, displacement of [^125I]-CXCL12 on membranes from HEK293T cells transiently expressing CXCR4; conditions: maximal displacement; membranes from HEK293T cells transiently expressing CXCR4; mean ± S.E.M.
Experimental: as §1, §2, §3, §4

[6] = biological target: wildtype human CXCR4 (pcDNA3.1-CXCR4, expressed in HEK293T) (human) (UniProt P61073); assay: competition with [125I]-CXCL12, HEK293T-CXCR4 membranes
[7] = biological target: wildtype human CXCR4 (pcDNA3.1-CXCR4, expressed in HEK293T) (human) (UniProt P61073); assay: competition with [125I]-238D2, HEK293T-CXCR4 membranes
[8] = biological target: wildtype human CXCR4 (pcDNA3.1-CXCR4, expressed in HEK293T) (human) (UniProt P61073); assay: competition with [125I]-238D4, HEK293T-CXCR4 membranes
[9] = biological target: CXCR4 mutation library clone 914 (N192K) (human, UniProt P61073 1-352); assay: immunofluorescence on HEK-293T expressing the clone, normalised to wild type
[10] = biological target: CXCR4 mutation library clone 465 (F189L, S319P, V155E) (human) (UniProt P61073); assay: as above
[11] = biological target: CXCR4 mutation library clone 2270 (V196E) (human) (UniProt P61073); assay: as above
[12] = biological target: CXCR4 mutation library clone 2396 (S178C) (human) (UniProt P61073); assay: as above
[13] = biological target: CXCR4 mutation library clone 913 (F189S, K308R) (human) (UniProt P61073); assay: as above
[14] = biological target: CXCR4 mutation library clone 3630 (W195R) (human) (UniProt P61073); assay: as above
[15] = biological target: CXCR4 mutation library clone 2084 (D187V) (human) (UniProt P61073); assay: as above
[16] = biological target: CXCR4 mutation library clone 709 (P163L, S178I) (human) (UniProt P61073); assay: as above
[17] = biological target: CXCR4 mutation library clone 2834 (E179V, G258E) (human) (UniProt P61073); assay: as above
[18] = biological target: CXCR4 mutation library clone 3622 (E277G) (human) (UniProt P61073); assay: as above
[19] = biological target: CXCR4 mutation library clone 185 (E277A, I245V, N298S) (human) (UniProt P61073); assay: as above
[20] = biological target: CXCR4 mutation library clone 2184 (P191T) (human) (UniProt P61073); assay: as above
[21] = biological target: CXCR4 mutation library clone 1057 (K230E, S178R) (human) (UniProt P61073); assay: as above
[22] = biological target: CXCR4 mutation library clone 3728 (D187A, Y157C) (human) (UniProt P61073); assay: as above
[23] = biological target: CXCR4 mutation library clone 1129 (F189V) (human) (UniProt P61073); assay: as above
[24] = biological target: CXCR4 mutation library clone 414 (C218R, E179V, S351T) (human) (UniProt P61073); assay: as above
[25] = maximal displacement, mean ± S.E.M.

T2 sequence (P61073 whole entry): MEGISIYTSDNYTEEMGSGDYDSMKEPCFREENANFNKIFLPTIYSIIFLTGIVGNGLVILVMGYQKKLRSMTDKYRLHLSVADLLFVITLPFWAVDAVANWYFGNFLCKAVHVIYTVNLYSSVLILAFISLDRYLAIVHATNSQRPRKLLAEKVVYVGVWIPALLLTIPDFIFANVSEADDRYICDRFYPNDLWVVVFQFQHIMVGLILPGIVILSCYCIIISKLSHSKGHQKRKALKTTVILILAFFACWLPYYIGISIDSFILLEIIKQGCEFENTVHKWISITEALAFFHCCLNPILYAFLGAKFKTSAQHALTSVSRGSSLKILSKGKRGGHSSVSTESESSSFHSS
Sequence of wildtype human CXCR4 (pcDNA3.1-CXCR4, expressed in HEK293T) (human) (P61073 whole entry): as above
T1 sequence (P61073 whole entry N119A): as the sequence (P61073 whole entry) above, with N119A counted along it
Sequence of CXCR4 mutation library clone 185 (E277A, I245V, N298S) (human) (P61073 whole entry I245V/E277A/N298S): as the sequence (P61073 whole entry) above, with I245V, E277A, N298S counted along it
Sequence of CXCR4 mutation library clone 1057 (K230E, S178R) (human) (P61073 whole entry S178R/K230E): as the sequence (P61073 whole entry) above, with S178R, K230E counted along it
Sequence of CXCR4 mutation library clone 414 (C218R, E179V, S351T) (human) (P61073 whole entry E179V/C218R/S351T): as the sequence (P61073 whole entry) above, with E179V, C218R, S351T counted along it
Sequence of CXCR4 mutation library clone 2834 (E179V, G258E) (human) (P61073 whole entry E179V/G258E): as the sequence (P61073 whole entry) above, with E179V, G258E counted along it
Sequence of CXCR4 mutation library clone 2396 (S178C) (human) (P61073 whole entry S178C): as the sequence (P61073 whole entry) above, with S178C counted along it
Sequence of CXCR4 mutation library clone 913 (F189S, K308R) (human) (P61073 whole entry F189S/K308R): as the sequence (P61073 whole entry) above, with F189S, K308R counted along it
Sequence of CXCR4 mutation library clone 3622 (E277G) (human) (P61073 whole entry E277G): as the sequence (P61073 whole entry) above, with E277G counted along it
Sequence of CXCR4 mutation library clone 3630 (W195R) (human) (P61073 whole entry W195R): as the sequence (P61073 whole entry) above, with W195R counted along it
Sequence of CXCR4 mutation library clone 2184 (P191T) (human) (P61073 whole entry P191T): as the sequence (P61073 whole entry) above, with P191T counted along it
Sequence of CXCR4 mutation library clone 465 (F189L, S319P, V155E) (human) (P61073 whole entry V155E/F189L/S319P): as the sequence (P61073 whole entry) above, with V155E, F189L, S319P counted along it
Sequence of CXCR4 mutation library clone 1129 (F189V) (human) (P61073 whole entry F189V): as the sequence (P61073 whole entry) above, with F189V counted along it
Sequence of CXCR4 mutation library clone 2084 (D187V) (human) (P61073 whole entry D187V): as the sequence (P61073 whole entry) above, with D187V counted along it
Sequence of CXCR4 mutation library clone 709 (P163L, S178I) (human) (P61073 whole entry P163L/S178I): as the sequence (P61073 whole entry) above, with P163L, S178I counted along it
Sequence of CXCR4 mutation library clone 2270 (V196E) (human) (P61073 whole entry V196E): as the sequence (P61073 whole entry) above, with V196E counted along it
Sequence of CXCR4 mutation library clone 914 (N192K) (P61073 whole entry N192K): as the sequence (P61073 whole entry) above, with N192K counted along it
Sequence of CXCR4 mutation library clone 3728 (D187A, Y157C) (human) (P61073 whole entry Y157C/D187A): as the sequence (P61073 whole entry) above, with Y157C, D187A counted along it

In the case of c1cc(CN2CCCNCCNCCCNCC2)ccc1CN1CCCNCCNCCCNCC1 [AMD3100, reference compound], the “functional profile on CXCR4 (N119A) (in words)” value (“functional profile on CXCR4” for short) (CXCR4 (N119A) [1]) is reported as “Only antagonistic but no significant inverse agonistic activities”, the “displacement of [^125I]-238D2 (in words)” value (CXCR4 [2]) is reported as “affinities comparable to those obtained against [^125I]-CXCL12” and the “[^125I]-238D2 Displacem. (%)” value (CXCR4 [2]; [25]) is reported as 102 ± 1%. The “displacement of [^125I]-238D4 (in words)” value (CXCR4 [3]) was “affinities comparable to those obtained against [^125I]-CXCL12”, the “[^125I]-238D4 Displacem. (%)” value (CXCR4 [3]; [25]) was 99 ± 4% and the “binding to CXCR4 (N119A) (in words)” value (CXCR4 (N119A) [4]) was “clearly bind to the mutant receptor”. For the same molecule, the “[^125I]-CXCL12 Displacem. (%)” value (CXCR4 [5]) was 94 ± 2%.

For “CXCL12: CXCR4 reference ligand, human CXCL12 (SDF-1) [reference compound]”, the “stimulation of the mutant receptor” value (CXCR4 (N119A) [1]; inositol phosphate accumulation, CXCR4 (N119A)) was 0.4 fold over basal.

Work on monoclonal antibody 12G5 yielded a maximal displacement (%) [6] of 54%, a pKi [6] of 9.19 pKi and a maximal displacement (%) [7] of 89%. It also gave a pKi [7] of 9.65 pKi, a maximal displacement (%) [8] of 90% and a pKi [8] of 9.31 pKi. It also gave a % immunofluorescence [9] of 57.7%, a % immunofluorescence [10] of 50.4% and a % immunofluorescence [11] of 96.8%. For the same molecule, the % immunofluorescence [12] was 91.8%, the % immunofluorescence [13] was 110% and the % immunofluorescence [14] was 85.5%. It also gave a % immunofluorescence [15] of 89.5%, a % immunofluorescence [16] of 113% and a % immunofluorescence [17] of 1.5%. It also gave a % immunofluorescence [18] of 61.3%, a % immunofluorescence [19] of 93.9% and a % immunofluorescence [20] of 118%. The % immunofluorescence [21] was 112%, the % immunofluorescence [22] was 95.1% and the % immunofluorescence [23] was 94.7%. For the same molecule, the % immunofluorescence [24] was -9.1%.

B1: L8: bivalent fusion product 238D2-20GS-238D4, SEQ ID NO: 5 (protein)
chain: EVQLVESGGGLVQTGGSLRLSCAASGFTFSSYAMSWVRQAPGKGLEWVSGIKSSGDSTRYAGSVKGRFTISRDNAKNMLYLQMYSLKPEDTAVYYCAKSRVSRTGLYTYDNRGQGTQVTVSSGGGGSGGGGSGGGGSGGGGSEVQLMESGGGLVQAGGSLRLSCAASGRTFNNYAMGWFRRAPGKEREFVAAITRSGVRSGVSAIYGDSVKDRFTISRDNAKNTLYLQMNSLKPEDTAVYTCAASAIGSGALRRFEYDYSGQGTQVTVSS
modifications: Nanobody construct
B1 was tested, and the “reduction of the constitutively increased basal signalling of CXCR4 (N119A)” value (CXCR4 (N119A) [1]) was 65%, the “functional profile on CXCR4” value (CXCR4 (N119A) [1]) was “partial inverse agonists” and the “binding affinities to CXCR4 (N119A) compared to wild type (in words)” value (CXCR4 (N119A) [4]) was “somewhat less compared to the wild type receptor”. For the same molecule, the “binding to CXCR4 (N119A) (in words)” value (CXCR4 (N119A) [4]) was “able to bind to CXCR4 (N119A)”.

B2: L3: bivalent fusion product 238D2-15GS-238D4, SEQ ID NO: 4 (protein)
chain: EVQLVESGGGLVQTGGSLRLSCAASGFTFSSYAMSWVRQAPGKGLEWVSGIKSSGDSTRYAGSVKGRFTISRDNAKNMLYLQMYSLKPEDTAVYYCAKSRVSRTGLYTYDNRGQGTQVTVSSGGGGSGGGGSGGGGSEVQLMESGGGLVQAGGSLRLSCAASGRTFNNYAMGWFRRAPGKEREFVAAITRSGVRSGVSAIYGDSVKDRFTISRDNAKNTLYLQMNSLKPEDTAVYTCAASAIGSGALRRFEYDYSGQGTQVTVSS
modifications: Nanobody construct
With B2 the “reduction of the constitutively increased basal signalling of CXCR4 (N119A)” value (CXCR4 (N119A) [1]) was 64%, the “functional profile on CXCR4” value (CXCR4 (N119A) [1]) was “partial inverse agonists” and the “binding affinities to CXCR4 (N119A) compared to wild type (in words)” value (CXCR4 (N119A) [4]) was “somewhat less compared to the wild type receptor”. The “binding to CXCR4 (N119A) (in words)” value (CXCR4 (N119A) [4]) was “able to bind to CXCR4 (N119A)”.
